The target in one data set is T1, Asac_1390 (Acidilobus saccharovorans, UniProt D9PZ08).
T1 construct: full length, 490 residues, about 55 kDa on SDS-PAGE; pQE60 NcoI/BglII, expressed in E. coli DLT1270 pRARE2; purified by double heat treatment; no secretion signal; no tag mentioned (reverse primer carries the stop codon)
T1 sequence (D9PZ08 1-490): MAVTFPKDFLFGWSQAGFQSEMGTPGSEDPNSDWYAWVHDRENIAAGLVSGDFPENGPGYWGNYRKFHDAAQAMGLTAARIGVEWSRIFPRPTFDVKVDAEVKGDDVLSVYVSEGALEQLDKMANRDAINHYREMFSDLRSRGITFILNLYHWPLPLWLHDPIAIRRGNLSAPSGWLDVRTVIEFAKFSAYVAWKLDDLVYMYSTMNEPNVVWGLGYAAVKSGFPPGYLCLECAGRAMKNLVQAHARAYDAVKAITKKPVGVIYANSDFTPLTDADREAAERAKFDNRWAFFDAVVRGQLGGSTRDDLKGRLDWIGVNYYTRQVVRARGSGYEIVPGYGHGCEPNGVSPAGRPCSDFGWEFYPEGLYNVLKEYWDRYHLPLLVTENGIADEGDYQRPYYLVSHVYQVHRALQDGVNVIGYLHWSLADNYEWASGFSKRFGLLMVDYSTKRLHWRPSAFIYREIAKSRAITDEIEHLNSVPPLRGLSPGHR
Put plainly: oNPGal hydrolysis, Cornish-Bowden and Dixon plots. The settings on record: mixed inhibition, dissociation constant of the EIS complex; otherwise as the row above. The format is biochemical.

Substrate in data set [1]: O=[N+]([O-])c1ccc(O[C@@H]2O[C@H](CO)[C@@H](O)[C@H](O)[C@@H]2O)cc1
Nature of the data set: purified protein. The settings on record: 0.1 M sodium phosphate pH 7.0, 93°C. It is filed as biochemical, Acidilobus saccharovorans.

Substrate in data set [2]: O=[N+]([O-])c1ccc(O[C@@H]2OC[C@@H](O)[C@H](O)[C@H]2O)cc1
Nature of the data set: purified protein. The format is biochemical, Acidilobus saccharovorans. To be noted: 0.1 M sodium phosphate pH 7.0, 93°C.

Substrate in data set [3]: O=[N+]([O-])c1ccc(O[C@@H]2O[C@H](CO)[C@H](O)[C@H](O)[C@H]2O)cc1
Nature of the data set: purified protein. The format is biochemical, Acidilobus saccharovorans. The settings on record: 0.1 M sodium phosphate pH 7.0, 93°C.

Substrate in data set [4]: O=[N+]([O-])c1ccccc1O[C@@H]1O[C@H](CO)[C@H](O)[C@H](O)[C@H]1O
Put plainly: purified protein. It is filed as biochemical, Acidilobus saccharovorans. To be noted: 0.1 M sodium phosphate pH 7.0, 93°C.

Substrate in data set [5]: O=[N+]([O-])c1ccc(O[C@@H]2O[C@H](CO)[C@@H](O)[C@H](O)[C@H]2O)cc1
Put plainly: purified protein. The format is biochemical, Acidilobus saccharovorans. To be noted: 0.1 M sodium phosphate pH 7.0, 93°C.

The values that follow come from article PMC4619763, “A Novel Highly Thermostable Multifunctional Beta-Glycosidase from Crenarchaeon Acidilobus saccharovorans” (Archaea, 2015).

For `OC[C@H]1OC(O)[C@H](O)[C@@H](O)[C@@H]1O` (stereo partly drawn) [glucose], at Asac_1390, the “K i′” value is recorded as 158 mM.

B1: Asac_1390 (Acidilobus saccharovorans 345-15) (protein)
chain: MAVTFPKDFLFGWSQAGFQSEMGTPGSEDPNSDWYAWVHDRENIAAGLVSGDFPENGPGYWGNYRKFHDAAQAMGLTAARIGVEWSRIFPRPTFDVKVDAEVKGDDVLSVYVSEGALEQLDKMANRDAINHYREMFSDLRSRGITFILNLYHWPLPLWLHDPIAIRRGNLSAPSGWLDVRTVIEFAKFSAYVAWKLDDLVYMYSTMNEPNVVWGLGYAAVKSGFPPGYLCLECAGRAMKNLVQAHARAYDAVKAITKKPVGVIYANSDFTPLTDADREAAERAKFDNRWAFFDAVVRGQLGGSTRDDLKGRLDWIGVNYYTRQVVRARGSGYEIVPGYGHGCEPNGVSPAGRPCSDFGWEFYPEGLYNVLKEYWDRYHLPLLVTENGIADEGDYQRPYYLVSHVYQVHRALQDGVNVIGYLHWSLADNYEWASGFSKRFGLLMVDYSTKRLHWRPSAFIYREIAKSRAITDEIEHLNSVPPLRGLSPGHR
notes: full length, 490 residues, about 55 kDa on SDS-PAGE; pQE60 NcoI/BglII, expressed in E. coli DLT1270 pRARE2; purified by double heat treatment; no secretion signal; no tag mentioned (reverse primer carries the stop codon)
For the molecule B1, the Km in the data set “purified protein [1]” was determined as 2400 µM; in “purified protein [2]”, 4650 µM; in the data set “purified protein [3]”, 2900 µM; in “purified protein [4]”, 2000 µM; in the data set “purified protein [5]”, 240 µM. Further, the Vmax came out at 62.8 µmol/min/mg in the data set “purified protein [1]”; 124 µmol/min/mg in the data set “purified protein [2]”; 499 µmol/min/mg in the data set “purified protein [3]”; 469 µmol/min/mg in “purified protein [4]”; 344 µmol/min/mg in the data set “purified protein [5]”. Moreover, the turnover number (kcat) in the data set “purified protein [1]” is 58.2 s⁻¹; in “purified protein [2]”, 115 s⁻¹; in the data set “purified protein [3]”, 462 s⁻¹; in “purified protein [4]”, 434 s⁻¹; in “purified protein [5]” it was 318 s⁻¹. In addition, the kcat/Km in “purified protein [1]” is 24200 M⁻¹ s⁻¹; in the data set “purified protein [2]”, 24600 M⁻¹ s⁻¹; in the data set “purified protein [3]”, 160000 M⁻¹ s⁻¹; in the data set “purified protein [4]”, 217000 M⁻¹ s⁻¹; in “purified protein [5]” it was 1.33e+06 M⁻¹ s⁻¹.

A word on the Km: it is the substrate concentration at which the rate is half of its maximum. Usually Vmax stands for the top rate of the reaction or transport when substrate is in excess. The term kcat denotes the number of substrate molecules converted per active site and unit of time at saturation. In general, kcat/Km refers to the second-order rate constant that governs catalysis at low substrate concentration.
